Results on one molecule are retold here after PMC4773433, “The Bub1–Plk1 kinase complex promotes spindle checkpoint signalling through Cdc20 phosphorylation” (Nature Communications, 2016).

In one experiment the target is T1, His6-Cdc20^ΔN60 WT (human, UniProt Q12834 61-499).
T1 construct: Cdc20, human, residues 61-499 (Cdc20^ΔN60); also called Cdc20 WT; recombinant Cdc20; source: Sf9, purified (Ni-NTA)
The experiment can be described thus: pull-down; purified His6–Cdc20^ΔN60 WT or S92E immobilised on Ni-NTA beads, incubated with BubR1N and Mad2, 1 h at room temperature, five washes, immunoblotting. The conditions noted are these: both partners purified.

The target in the next experiment is T2, His6-Cdc20^ΔN60 S92E (human, UniProt Q12834 61-499, S92E).
T2 construct: Cdc20, human, residues 61-499 (Cdc20^ΔN60), phospho-mimicking S92E; also called Cdc20 S92E; source: Sf9, purified (Ni-NTA)
T2 sequence (Q12834 61-499 S92E): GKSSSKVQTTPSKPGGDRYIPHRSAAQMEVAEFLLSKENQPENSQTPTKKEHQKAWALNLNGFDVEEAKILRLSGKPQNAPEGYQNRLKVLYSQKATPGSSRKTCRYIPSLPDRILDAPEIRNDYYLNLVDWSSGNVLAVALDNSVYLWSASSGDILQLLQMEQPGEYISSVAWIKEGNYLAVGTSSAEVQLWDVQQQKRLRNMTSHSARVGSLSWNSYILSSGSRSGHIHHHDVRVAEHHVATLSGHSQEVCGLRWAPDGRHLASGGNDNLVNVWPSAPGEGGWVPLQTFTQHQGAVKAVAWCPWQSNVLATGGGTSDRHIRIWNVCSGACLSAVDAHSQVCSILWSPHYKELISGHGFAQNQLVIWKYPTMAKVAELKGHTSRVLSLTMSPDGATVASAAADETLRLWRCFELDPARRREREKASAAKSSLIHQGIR
The description is as above. The settings on record: both partners purified.

T1 sequence (Q12834 61-499, stated change not applied): as the sequence (Q12834 61-499 S92E) above, with E32S counted along it

B1: BubR1 N-terminal fragment (BubR1N; residues 1–370) (domain or fragment, human, UniProt O60566 1-370, looked up)
chain: MAAVKKEGGALSEAMSLEGDEWELSKENVQPLRQGRIMSTLQGALAQESACNNTLQQQKRAFEYEIRFYTGNDPLDVWDRYISWTEQNYPQGGKESNMSTLLERAVEALQGEKRYYSDPRFLNLWLKLGRLCNEPLDMYSYLHNQGIGVSLAQFYISWAEEYEARENFRKADAIFQEGIQQKAEPLERLQSQHRQFQARVSRQTLLALEKEEEEEVFESSVPQRSTLAELKSKGKKTARAPIIRVGGALKAPSQNRGLQNPFPQQMQNNSRITVFDENADEASTAELSKPTVQPWIAPPMPRAKENELQAGPWNTGRSLEHRPRGNTASLIAVPAVLPSFTPYVEETARQPVMTPCKIEPSINHILSTRK
notes: source: bacteria, purified (Ni-NTA, TEV digestion, Resource Q, Superdex 200)
As for B1, the binding result with His6-Cdc20^ΔN60 WT and with His6-Cdc20^ΔN60 S92E was “binds” throughout.
